According to the nanobody polyreactivity screen of Harvey et al. (2022):

Assay: yeast display, Sf9 membrane polyspecificity reagent, FACS + sequencing; frameworks hold sequencing errors
Summary of the method: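 Genes from sorted yeast were amplified by colony PCR, read by MiSeq 2 × 250 sequencing and filtered on CDR length. These cells carried a synthetic nanobody library in Saccharomyces cerevisiae BJ5465 and were sorted by FACS into low and high (top ~1%) gates on anti-HA and streptavidin fluorescence. Polyreactivity is labelled according to the gate of origin.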

| Sequence | polyreactivity (PSR sort gate) |
| --- | --- |
| QDQLVESGRGLVQAGGSLRLSCAASGRTFALNVMGWYRQAPGKERELVAAISRSGGSTYFADSVKGRFTISRDNAKNTVYIQMNSLKPEDTAVYSCAAATHYQSYKRRDYWGQGTQVTVSS | high polyreactivity |
| QDQLVESGVGIVQAGGRLRLSCAASGRTFGRNAMGWYIQAPGKERELVATISRSGGSTNYADSVKGRFTISRDNAKNTVYLQMNSLKPEDTAVYYCAKARPFSYDYWGLGTQVTVSS | high polyreactivity |
| QDQLVESRGGLVQAGGSLRLRCAASGRIFTRYAMGWYRQAPRKERELVAAITYNGGSTYYADSVKGRFTISRDNAKNTVYLQMNSLKPEDTAVYYCNAVYMSWFGLYAGFDYWGQGTQVTVSS | high polyreactivity |
| QDQLVESRGGLVQAGGSLRLRCAASGSIFIGYAMGWYRQAPGKQRELVAAISGSGSSTYYADSVKGRFTISRDNAKNNDYLQMNILKPEDTAVYYCAAAPRFRGYDYCGQGTQVTVSS | high polyreactivity |
| QDQLVESVGGLVQAGASLRLSCAATGRTFTTYAIGLYRPAPGKERELVAAITSGTSTNYADSVKGRFTISRDTAKNTVYVQMNSLKPEDTAVYYCAAPHGRGYEYWGQGTQVTVSS | high polyreactivity |
| QDQLVESVGGLVQAGGSHRLSCAASGFTLKAYVMGWYRQAPGKERELVAAIRITGGRTYYADSVKGRFTISRDNAKNTVYLQMNSLKPQDTAVYYCNAVKGEPDDYVPFELDYWGQGTQVTVSS | high polyreactivity |
| QDQLVESVGGLVQAGGSLRLSCAASGGTFGPNAMGWYRQAPGKERELVAAISASGGITYYADSVKGRFTISRDNAKNTVYLQMNSLKPEDTAVYYCAAAITWIYSQAAFKIVQYDYWGQGTQVTVSS | low polyreactivity |
| QDQLVESVGGLVQAGGSLRLSCAASGSIFVRYAMGWYRQAPGKERELVAAISSDGNTYYADSVKGRFTISRDNAKNTVYLQMNSLKPEDTAVYYCAAKTRSRYYWGQGTQVTVSS | high polyreactivity |
| QDQPVESGGGLVQAGGSLRLSCDDSGFTFVYYAMGWYRQAPGQERELVAAISTGGSTYYADSVKWRFTISRDNAKNTVYLQMNSLKPEDTAVYYCNAVYTYRWRFNYWGQGTQVTVSS | high polyreactivity |
| QDQRVDSGRGLVQAGGSLRLSCAASGSIFDFYARGWNRPAPGKERELVATISSAGSTYYAESVKGRFTISRDNAKNTVYLQMNSLKPEDTALYYCARGYIRSYWWYHSDRGDFWGQGTQVTVSS | low polyreactivity |
| QEHLQESGGGLVQAGGDLRLSSPSSGNIFRDYISGCYRQAPGKEREFAAGIDRGANTNYADSVKGRFTISRDNAKNTVYLQMISLKPVDTAVYYCGVHTAIVPEFIYWGQGTQVTVSS | low polyreactivity |
| QEQLEESGGGLVQAGGSLRLSCAASGRIFAAYAKGWYRPAPGKEREVVAGITRTGGSTYYADSVKGRFTISRDNAKNTVYLQMNSLKPEDTAVYYCAARWIWRGYDYWGQGTKVTVSS | high polyreactivity |
| QEQLQEIGGRLEQAGGSLRLSCAASGYITYIGTMGWYRHAPGKEREFVATIVVGSTTNYADSVKGRFTISRDNAKNTVYLQPESGRYRGVLLRGWLLAVGKFTYWGQGTQETVSS | low polyreactivity |
| QEQLQETGGGLVRAGGSLRLICAASRSNSVEAGMGRSRQAPGEERELVATINDGSITNYAVSVKGRFTTSRDNAKYTVYLLMNSLKPEDTAVYYCAALTRNYQSHQFWGQGTQVTVSR | high polyreactivity |
| QEQLVESGGGIVKAGGSLRLSCAASGSIFSYYAMGRYRKSPGKEMELVAGITGGGSTDYADSLKGRFTISRDNAKNTVYLQMNSLIPEDPAVYYCAKRYVPWRPYDYWGQGTQVTVSS | low polyreactivity |
| QEQRVESGGGFVQAGGSLRLSCAASGFICVDYAMRWYRHARGNEREWVAAITYDGGSTYFADSVKARFTISRDNAKNTVNSQMNSLNPEDTALYYWAADYGYSQYILRQVRLEELDYSGQGTQVTVSS | low polyreactivity |
| QFHLVESGGGLVQAGGSLRLSCAASGITFGYYAMGWYRQAPGKERELVAAISGSASRTYYADTVKGRFTISRDNAKNTVYLQMNSLKQEDTAVYYCNARGGGTASCYYYWGPGTQVTVSS | high polyreactivity |
| QFHLVESGGGLVQAGGSLRLSCAASGRIFYPYAMGWYRQAPGKEREFVAAITRRTASTYYADSVKGRFTITRDNAKNTVYLQMNSLKPEDTAVYYCAADSYLKRPYYAGYYYWGQGTQVTVSS | high polyreactivity |
| QFHLVESGGGLVQAGGSLRLSCAASGYTFGKYAKGWYRHAPGKDRELVAGISSRGGSTYYADSVKWRFTISRDNAKNTVYLQMISLKPEYTAVYYCAAVAYTGGPRKLSFNYWGQGTQVTLSS | high polyreactivity |
| QFQLEESGGGLVQAGGSLRLSCDASGSTFSYALGWYRQAPGKERELVAAITIGGRTSYADSVKGRFTISRDNAKNTVYLQMNSLKPEDTAVYYCAAEGYYPVYYYVYYGYDYWGQGTQVTVSS | low polyreactivity |
| QFQLLESWGGLVQAGGSLLFSCAASGSTFGYYAMGWYRKAPGKERELVAAISKSGGTTSYADSVKGRFTISRDNAKNTVYLQMISLKPEDTAVYYCSARSFRRGGLRGYDSWGQGTQVTVSS | high polyreactivity |
| QFQLVDSGGGLVQAGGSLRLSCAASGRNYRLYAMGWSRQAPRKERELVAAITRGGRTNYAYSVKGRFTISRDNAMNTVYLQMNSLKPEDTAVYYCAARFVERDTDYYYWGQGTQVTVSS | low polyreactivity |

| Sequence | polyreactivity (PSR sort gate) |
| --- | --- |
| QFQLVDSGGGLVQAGGSLRLSCAASGRTFFFYAMGWYRQAPGKERELVASITWSGGTRTYYADSVKGRFTISRDNAKNTVYLQMNSLKREDTAVYYCADTYSSYWFNRYGGKYYYWGQGTQVTVSS | high polyreactivity |
| QFQLVDSGGGLVQPGGSLRLRCAASGLTFQQYAMGWYRQAPGKERELVAAITSDGASTNYADSVKGRFTISRDNAKNTVYLQMNSLKPEDTAVYYCAARRRSRQYRYDYWGQGTQVTVSS | high polyreactivity |
| QFQLVESAGGLLQAGGSLRIICAASGSTFGYNAMGWYRQAPGKERELVAAITGGGTTNYADSVKGRFTISRDNAKNTVYLQMNSLKPEDTAVYYCAASARRFFFPIYGLYYWGQVTQVTVSS | high polyreactivity |
| QFQLVESGGCLVQAGGSLRLSCAASGSIFLENTMGWYRQARGKEWEVVAPITSSGDSTYADSVKGRFTIARDNAKNTVYLHMNSLKPEDTAVYYCAAYAGSVRPGDLYGYDYWGQGTQVTVSS | low polyreactivity |
| QFQLVESGGGIVQAGGRLRLSCAASGSTFFGYAMGWFRQAPGKVRELVAAISSGGSTYYADSVKGRFTISRDNAKNTVYVQMNSLKPEDTAVYYCAAYSYPKKYGYWGQGTQVTVSL | high polyreactivity |
| QFQLVESGGGLDQAGGSLRLSCAASGFIFSWYAMGWYRQAPGKERELVAAINWSGGSTYYADSVKGRFTISRDNAKNTVYLQMNSLKPEDTAVYYCAAVRQSQFEYWGQGTQVTVSS | high polyreactivity |
| QFQLVESGGGLDQAGGSLRLSCAASGRIFYRNCMGWYSQAPWKDRELVASIRRGGSTNYADSVKGRFTISRDNAKYTVYLQMNSVKPEDTAVYYCAARRFYPYISSGPYYYWGQGTQVTVSS | high polyreactivity |
| QFQLVESGGGLFQAGGSLRLSCAASGSTFKRYAMGSYRQAPGKERELVAAISASGGSTSYADSVKGRFTISRDKAKNTVYLQMISLKPEDTAVYYCARDRFRSRFDYWGQGTQVTVSS | high polyreactivity |
| QFQLVESGGGLVEAGGSLRLSCAASGFTFSWYVMGWYRPAPGKERELVATITNRGGSTYYADSVKGRFTISRDNAKNTVYIQMKSQKPEDTAVYYCAARKKGSRVGYDYWGEGTQVTVSS | high polyreactivity |
| QFQLVESGGGLVQAGASLRLSCAASGSISKSYAMGWYRQAPGKERELVAAISWRGGSTYADSVKGRFTISRDNAKNTVYLQMNCLKPEDTAVYYCAATNYGTFWGGQSERYDYWGQGTQVTVSS | low polyreactivity |
| QFQLVESGGGLVQAGASLRLSCAASVSTFRPYAMGWYRQAPGKERELVAAISSGDSTYYADSVKGRFTISRDNGKNTVYLQMNSLIPDDTAVYYCAKRNYWHRGGGYWGLGTQVTVSS | high polyreactivity |
| QFQLVESGGGLVQAGCSLRLSCAASGRTVGSNDMGWYRQAPRKEMDLFAAIPTTTASTNYADSVKGRFTISRDNAKNTVYFQMNSLKPEDNAVYYCNKQYLWYYWDGTDAEDYWGQGTQVTVSS | low polyreactivity |
| QFQLVESGGGLVQAGGILRLSCAASGLIFQAYTMGWYRQAPGKEREFVAAISKSGGSTYYADSVKGRFTISRDNAKNTVYLQMNSLKPEDTAVYYCAAVDWRRPGYDYWGQGTQVTVSS | high polyreactivity |
| QFQLVESGGGLVQAGGILRLSCAASGRIFKYYAMGWYRQEPGKERELVAAISRGGSTYYADSVKGRFTISRDNAKNTVYLQMNSLKPEDSAVYYCNAYRHGYVAYRRYDYWGQGTQVTVSS | high polyreactivity |
| QFQLVESGGGLVQAGGRLRLSCAASGSTLRRYAMGWYRQAPGKERELVAAITYRSGSTYYADSVKGRFTISRDNAKNTVYLEMNSLKPVDTAVYYCAKVGYVSKYWFAGDYWGQGTQVTVSS | high polyreactivity |
| QFQLVESGGGLVQAGGSLRLSCAASGFIFAVNAMGWYRQAPGKERELVAAISSSGTTNYADSVKGRFTISRDNAKNTVYLQMNSLKPEDTAVYYCNKRWRDKYPQYDYWGQGTQVTVSS | low polyreactivity |
| QFQLVESGGGLVQAGGSLRLSCAASGFIFKPYTMGWYRQAPGKERELVATITFSGGSTYYADSVKGRFTNSRDNAKNTVYLQMNSLKPEDTAVYYCAAPRFYRGYAIYDYWGQGTQVTVSS | low polyreactivity |
| QFQLVESGGGLVQAGGSLRLSCAASGFNFQYNAIGWYRQAPGKERELVAAITWTGTSTYADSVKGRFTISRDYAKNTVYLQMNSLKPEDTSVYYCAARYYAPRWFRYDYWGQGTQVTVSS | low polyreactivity |
| QFQLVESGGGLVQAGGSLRLSCAASGFTFPGYALGWSTQAPGKERELVAAINSSGGRTYYADSVKWRFTISRDNAKYTVYLQMNSLKPEDTEVYYCGATRWYIRARYNYWGHGTQVTVSS | high polyreactivity |
| QFQLVESGGGLVQAGGSLRLSCAASGFTFYPYAMGWSRQAPGKERELVAAITRSGTSTFYADSVKGRFTISRDNAKNTVYLQMNSLKPEDTAVYYCAKGYFFVGTDWESYYWGQGTQVTVSS | low polyreactivity |
| QFQLVESGGGLVQAGGSLRLSCAASGFTYYFYAMGWYRPAPGKERELVAAISRGGSTTYADSVKGRFTISRDNAKNTVYLQMYSLKPEDTAVYYCGADDYYDPHYEYDFWGQGTQVTVSS | low polyreactivity |
